Measured values published in article PMC10108556 (Antibody Therapeutics, 2023).

Legend:
[1] = biological target: T1, SARS-CoV-2 RBD domain (residues 319–541) with C-terminal twin-strep-tag II (SARS-CoV-2 Wuhan-Hu-1 (MN908947), UniProt P0DTC2); test: cryo-EM structure
RBD-his = RBD-his (SARS-CoV-2, UniProt P0DTC2); test: AlphaScreen or HTRF
[2] = biological target: T2, SARS-CoV-2 RBD domain (residues 319-541) (SARS-CoV-2 Wuhan-Hu-1 (MN908947), UniProt P0DTC2); test: cryo-EM structure
[3] = biological target: T1, SARS-CoV-2 RBD domain (residues …); test: crystal structure
[4] = biological target: T2, SARS-CoV-2 RBD domain (residues 319-541); test: crystal structure

B1: A5–10 Fab (Fab, V domains shown)
VH: EVQLLESGGGLVQPGGSLRLSCAASGFTFSSYAMSWVRQAPGKGLEWVSAIVGSGGSTYYADSVKGRFIISRDNSKNTLYLQMNSLRAEDTAVYYCAKSLIYGHYDILTGAYYFDYWGQGTLVTVSS
VL: AQMTQSPSSVSASVGDRVTIPCRASQGIGNWLAWYQQKPGKAPKLLIYAASSLQSGVPSRFSGSGSGTDFTLTISSLQPEDFATYYCQQANSFPPFGQGTRLEIK
[1]
  binding result: binds

B2: nAb A5–10 (antibody, V domains shown)
VH: EVQLLESGGGLVQPGGSLRLSCAASGFTFSSYAMSWVRQAPGKGLEWVSAIVGSGGSTYYADSVKGRFIISRDNSKNTLYLQMNSLRAEDTAVYYCAKSLIYGHYDILTGAYYFDYWGQGTLVTVSS
VL: AQMTQSPSSVSASVGDRVTIPCRASQGIGNWLAWYQQKPGKAPKLLIYAASSLQSGVPSRFSGSGSGTDFTLTISSLQPEDFATYYCQQANSFPPFGQGTRLEIK
RBD-his
  binding result: binds

B3: A5-10 Fab (Fab, V domains shown)
VH: EVQLLESGGGLVQPGGSLRLSCAASGFTFSSYAMSWVRQAPGKGLEWVSAIVGSGGSTYYADSVKGRFIISRDNSKNTLYLQMNSLRAEDTAVYYCAKSLIYGHYDILTGAYYFDYWGQGTLVTVSS
VL: AQMTQSPSSVSASVGDRVTIPCRASQGIGNWLAWYQQKPGKAPKLLIYAASSLQSGVPSRFSGSGSGTDFTLTISSLQPEDFATYYCQQANSFPPFGQGTRLEIK
[2]
  binding result: binds

B4: nAb A34–2 (antibody, V domains shown)
VH: EVQLVESGGGLVQPGRSLRLSCAASGFTFDESAMHWVRQAPGEGLEWVSGISWNSGRIAYADSVRGRFTISRDNAKNSLYLQMNSLRAEDTALYFCALTTSGWFSFDYWGQGTLVTVSS
VL: SYVLTQPPSVSVAPGKTARITCGGNNIGSKSVHWYQQKPGQAPVPVIYYDSDRPSGIPERFSGSNSGNTATLTISRVEVGDEADYYCQVWDSSSDRAVFGGGTTLTVL
RBD-his
  binding result: binds

B5: A34-2 Fab (Fab, V domains shown)
VH: EVQLVESGGGLVQPGRSLRLSCAASGFTFDESAMHWVRQAPGEGLEWVSGISWNSGRIAYADSVRGRFTISRDNAKNSLYLQMNSLRAEDTALYFCALTTSGWFSFDYWGQGTLVTVSS
VL: SYVLTQPPSVSVAPGKTARITCGGNNIGSKSVHWYQQKPGQAPVPVIYYDSDRPSGIPERFSGSNSGNTATLTISRVEVGDEADYYCQVWDSSSDRAVFGGGTTLTVL
[2]
  binding result: binds

B6: A34–2 Fab (Fab, V domains shown)
VH: EVQLVESGGGLVQPGRSLRLSCAASGFTFDESAMHWVRQAPGEGLEWVSGISWNSGRIAYADSVRGRFTISRDNAKNSLYLQMNSLRAEDTALYFCALTTSGWFSFDYWGQGTLVTVSS
VL: SYVLTQPPSVSVAPGKTARITCGGNNIGSKSVHWYQQKPGQAPVPVIYYDSDRPSGIPERFSGSNSGNTATLTISRVEVGDEADYYCQVWDSSSDRAVFGGGTTLTVL
[1]
  binding result: binds

B7: A8–1 Fab (Fab, V domains shown)
VH: EVQLVESGGGLIQPGGSLRLSCAASGLTVSSNYMTWVRQAPGKGLEWVSVIYSGGSTFYAESVKGRFTISRDNSKNTLYLQMNSLRAEDTAVYYCARDLVVYGMDVWGQGTTVIVSS
VL: IQLTQSPSFLSASVGDRVTITCRASQGISSDLAWYQQKPGKAPKLLIYAASTLQSGVPSRFSGSGSGTEFTLTISSLQPEDFATYYCQQLNSHPLAFGPGTKVDIK
[3]
  binding result: binds

B8: A8-1 Fab (Fab, V domains shown)
VH: EVQLVESGGGLIQPGGSLRLSCAASGLTVSSNYMTWVRQAPGKGLEWVSVIYSGGSTFYAESVKGRFTISRDNSKNTLYLQMNSLRAEDTAVYYCARDLVVYGMDVWGQGTTVIVSS
VL: IQLTQSPSFLSASVGDRVTITCRASQGISSDLAWYQQKPGKAPKLLIYAASTLQSGVPSRFSGSGSGTEFTLTISSLQPEDFATYYCQQLNSHPLAFGPGTKVDIK
[4]
  binding result: binds

B9: nAb A8–1 (antibody, V domains shown)
VH: EVQLVESGGGLIQPGGSLRLSCAASGLTVSSNYMTWVRQAPGKGLEWVSVIYSGGSTFYAESVKGRFTISRDNSKNTLYLQMNSLRAEDTAVYYCARDLVVYGMDVWGQGTTVIVSS
VL: IQLTQSPSFLSASVGDRVTITCRASQGISSDLAWYQQKPGKAPKLLIYAASTLQSGVPSRFSGSGSGTEFTLTISSLQPEDFATYYCQQLNSHPLAFGPGTKVDIK
RBD-his
  binding result: binds
